Changes are numbered by the printed parent chain.

This assay deals with T1, cynomolgus monkey FcγRIIa1 extracellular domain, C-terminal His-tag (cynomolgus monkey).
T1 construct: also called cyno FcγRIIa1; cynoFcgRIIa1; not shown: His-tag added to C-terminus
T1 chain: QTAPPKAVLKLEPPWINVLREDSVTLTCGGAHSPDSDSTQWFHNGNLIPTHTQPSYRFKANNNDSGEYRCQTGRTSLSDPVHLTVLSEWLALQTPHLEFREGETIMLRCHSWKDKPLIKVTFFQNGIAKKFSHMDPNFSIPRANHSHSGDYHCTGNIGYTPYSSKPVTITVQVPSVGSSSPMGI
Put plainly: SPR (Biacore), KD of SG1 / KD of variant.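 Further: relative to parent M103205H795-SG1 carrying the SG1 human heavy chain constant region.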

B1: M103205H795-MY219/M103202L889-SK1 (antibody, human IgG1, kappa)
heavy: QVTLKESGPVLVKPTETLTLTCTVSGIDLSHDDISWVRQAPGKGLEWVGIISYAGSTYYASWAKGRLTISKDTSKNQVVLTMTNMDPVDTATYYCARGVPAYSHGGDLWGQGTLVTVSSASTKGPSVFPLAPSSKSTSGGTAALGCLVKDYFPEPVTVSWNSGALTSGVHTFPAVLQSSGLYSLSSVVTVPSSSLGTQTYICNVNHKPSNTKVDKKVEPKSCDKTHTCPPCPAPELLGYPSVFLFPPKPKDTLMISRTPEVTCVVVDVSDEDPEVKFNWYVDGVEVHNAKTKPREEQYNSTYRVVSVLTVLHQDWLNGKEYKCKVSNKALPKPIEKTISKAKGQPREPQVYTLPPSREEMTKNQVSLTCLVKGFYPSDIAVEWESNGQPENNYKTTPPVLDSDGSFFLYSKLTVDKSRWQQGNVFSCSVMHEALHNHYTQKSLSLSP
light: DIVMTQSPATLSLSPGERATLSCTSSQSVYHANWLSWFQQKPGQPPKLLIYWASTLAYGVPSRFSGSGSGTDFTLTISSLQPEDAATYYCAGGYGGGRYAFGQGTKVEIKRTVAAPSVFIFPPSDEQLKSGTASVVCLLNNFYPREAKVQWKVDNALQSGNSQESVTEQDSKDSTYSLSSTLTLSKADYEKHKVYACEVTHQGLSSPVTKSFNRGEC
With B1, the “KD fold (SG1 = 1)” value stood at 0.5 fold.

B2: M103205H795-MY227/M103202L889-SK1 (antibody, human IgG1, kappa)
heavy: B1 heavy with P398K
light: B1 light
For B2, the “KD fold (SG1 = 1)” value worked out at 1.7 fold.

B3: M103205H795-MY272/M103202L889-SK1 (antibody, human IgG1, kappa)
heavy: B1 heavy with G238Q, Y239G, P398K
light: B1 light
Consider B3, for which the “KD fold (SG1 = 1)” value is 1.9 fold.

B4: M103205H795-MY280/M103202L889-SK1 (antibody, human IgG1, kappa)
heavy: B1 heavy with G238V, Y239G, Q297L
light: B1 light
As to B4, the “KD fold (SG1 = 1)” value worked out at 3.2 fold.

B5: M103205H795-MY279/M103202L889-SK1 (antibody, human IgG1, kappa)
heavy: B1 heavy with G238H, Y239G, Q297L
light: B1 light
As for B5, the “KD fold (SG1 = 1)” value worked out at 1.1 fold.

B6: M103205H795-MY281/M103202L889-SK1 (antibody, human IgG1, kappa)
heavy: B1 heavy with G238Q, Y239G, Q297L
light: B1 light
For the molecule B6, the “KD fold (SG1 = 1)” value was 1.7 fold.

B7: M103205H795-MY309/M103202L889-SK1 (antibody, human IgG1, kappa)
heavy: B1 heavy with G238T, Y239G, D270E, P398M
light: B1 light
Consider B7, for which the “KD fold (SG1 = 1)” value is 1.3 fold.

B8: M103205H795-MY270/M103202L889-SK1 (antibody, human IgG1, kappa)
heavy: B1 heavy with G238H, Y239G, P398K
light: B1 light
In the case of B8, the “KD fold (SG1 = 1)” value came to 1.8 fold.

B9: M103205H795-MY311/M103202L889-SK1 (antibody, human IgG1, kappa)
heavy: B1 heavy with G238T, Y239G, D270E, Q297L
light: B1 light
Take B9: the “KD fold (SG1 = 1)” value was 1.4 fold.

B10: M103205H795-MY273/M103202L889-SK1 (antibody, human IgG1, kappa)
heavy: B1 heavy with G238L, Y239G, P398K
light: B1 light
As for B10, the “KD fold (SG1 = 1)” value was found to be 0.8 fold.

B11: M103205H795-MY278/M103202L889-SK1 (antibody, human IgG1, kappa)
heavy: B1 heavy with G238M, Y239G, Q297L
light: B1 light
For the molecule B11, the “KD fold (SG1 = 1)” value is 1.1 fold.

B12: M103205H795-MY293/M103202L889-SK1 (antibody, human IgG1, kappa)
heavy: B1 heavy with D270E, Q297L, P398K
light: B1 light
In the case of B12, the “KD fold (SG1 = 1)” value came to 1.1 fold.

B13: M103205H795-MY274/M103202L889-SK1 (antibody, human IgG1, kappa)
heavy: B1 heavy with G238T, Y239G, P398K
light: B1 light
B13: the “KD fold (SG1 = 1)” value was found to be 3.6 fold.

B14: M103205H795-MY269/M103202L889-SK1 (antibody, human IgG1, kappa)
heavy: B1 heavy with G238M, Y239G, P398K
light: B1 light
On to B14, for which the “KD fold (SG1 = 1)” value amounted to 1.4 fold.

B15: M103205H795-MY312/M103202L889-SK1 (antibody, human IgG1, kappa)
heavy: B1 heavy with G238T, Y239G, D270E, K328T, P398M
light: B1 light
B15: the “KD fold (SG1 = 1)” value came out at 2.3 fold.

B16: M103205H795-MY292/M103202L889-SK1 (antibody, human IgG1, kappa)
heavy: B1 heavy with Q297L, P398M
light: B1 light
For the molecule B16, the “KD fold (SG1 = 1)” value came to 2.1 fold.

B17: M103205H795-MY228/M103202L889-SK1 (antibody, human IgG1, kappa)
heavy: B1 heavy with Q297L
light: B1 light
With B17, the “KD fold (SG1 = 1)” value was 1.1 fold.

B18: M103205H795-MY276/M103202L889-SK1 (antibody, human IgG1, kappa)
heavy: B1 heavy with G238I, Y239G, P398K
light: B1 light
As to B18, the “KD fold (SG1 = 1)” value is 2.9 fold.

B19: M103205H795-MY271/M103202L889-SK1 (antibody, human IgG1, kappa)
heavy: B1 heavy with G238V, Y239G, P398K
light: B1 light
For the molecule B19, the “KD fold (SG1 = 1)” value is 4.7 fold.

B20: M103205H795-MY308/M103202L889-SK1 (antibody, human IgG1, kappa)
heavy: B1 heavy with G238T, Y239G, D270E
light: B1 light
B20: the “KD fold (SG1 = 1)” value was found to be 1 fold.

B21: M103205H795-MY318/M103202L889-SK1 (antibody, human IgG1, kappa)
heavy: B1 heavy with G238L, Y239G, D270E, K328T, P398M
light: B1 light
B21: the “KD fold (SG1 = 1)” value amounted to 0.4 fold.

B22: M103205H795-MY321/M103202L889-SK1 (antibody, human IgG1, kappa)
heavy: B1 heavy with G238H, Y239G, P398M
light: B1 light
Turning to B22, the “KD fold (SG1 = 1)” value was 1.4 fold.

B23: M103205H795-MY242/M103202L889-SK1 (antibody, human IgG1, kappa)
heavy: B1 heavy with Y239G, P240I, P398K
light: B1 light
For B23, the “KD fold (SG1 = 1)” value turned out to be 0.7 fold.

B24: M103205H795-MY229/M103202L889-SK1 (antibody, human IgG1, kappa)
heavy: B1 heavy with Q297L, P398K
light: B1 light
As for B24, the “KD fold (SG1 = 1)” value amounted to 2 fold.

B25: M103205H795-MY310/M103202L889-SK1 (antibody, human IgG1, kappa)
heavy: B1 heavy with G238T, Y239G, D270E, K328T
light: B1 light
Regarding B25, the “KD fold (SG1 = 1)” value was found to be 1.1 fold.

Values taken from patent US20200317768A1 (published 2020).
